Consider 24 sequences from a protein production outcome set (Wang et al. 2014).
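Also: failed if final PepcDB status was selected cloned or expressed and not failed if soluble or beyond.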

The data set in a line: label from the status in PepcDB records.
Turning to “MRRGDIGSCDRVDPSGKTLAGCDAGGDRGLGHGAFSSRAMWASDRTAARLLRPTLRQINTRLAGPPDPSISASMERAADMQTLLREIRNTPLLWMLVFVPIVLLAEAAAPHSHTLLFVLAVLAIVPLAALLSHATEAVAAKTGDAVGGLLNATLGNLTELIIAITALRAGQYMLVKASIAGAIVTNAVFMLGACLLLGGLRYHVQEYNRAGARLSSGLLLMATVALLAPSAVADLEHLPQGGGILNKLSVGISVLLIIAYALGLLFSLGTHKELFASADHGDDKEAHWPIGIAVGTLLVVTVLVALVSEIFVESVQKAAETFGMSPAFVGFIIVSLVGAAAEFAVAFGAARKDRLDMVVSIALGSASQIALFVAPALVLLSYVVGPTPMNLQFWPGAVTMVMIATVTSAFITASGRSAWFVGALMIFIYAVFALTLYVVPPAGEG”, the protein production entry is listed as “failed”.

As to “MINLAVLGLYLLIGFILKRTGKCPENSAQVLNLYVIYAALPGVIFSKVPALEFSTDLLIPVVIPWVLLAFSAVFIWLLGRAFKWPREVVGALLICVPLGNTSFFGFPMIEAFYGSDAIVYGLLYDQFGSFFGLAIYSTIVIALYREQDNKPTVASVTRQIVTFPPFIALIIALLTKSLVYPEVFQRLIDSLAVTLVPVIMIAVGFQLKFRLPKGSKTPLTIGLLTKLVLMPLITVGLLYGFGFDSTLVQVTIFESAMPPMITAGAVAIMAGLAPRLSAAMVGYGILFAFVSLPIVYQLLQLLSAH”, the protein production entry was “failed”.

On to “MSMPNHPNLTTADAKKILNKFNCLDIAPILKPSEKESVRRALILITKLSDYQILGICADTADEGLLAMKTYSHALGYEVPIDLPVVEGPVYIKLNGKNGLCYLDSYAGHHRGVLVSCQSYYEGGINEMYGHLPLDLFV”, for which the protein production entry is “not failed”.

For “DRDQTLALMAQMTIPTLATWCAVYTIADQASEPYLSYVLHEDEDRIDGVKALLSKIPPPEPIPTPGARVWSAPAQAAHEAALRTSMRSLGLGEPATVSSGIGTTLATASAVGGETVVLPLVARNRVIGMLTLGKPSDEHFRQEILELAEDLSRRAALALDNARLYSERTAISQSLQRSLLPPDLPHI”, the protein production entry was “failed”.

With “MLANQIKYVILHLTQSIIEYSMANLNCIKAVLAEKGIMSKWLAKTLKKDPATVSKWCNNHSQPDLYTLARIAEVLDVDIHKLICHTKEE”, the protein production result is listed as “failed”.

“VDKCDEPLSILVRNNKGRSSTYEVRLTQTVAHLKQQVSGLEGVQDDLFWLTFEGKPLEDQLPLGEYGLKPLSTVFMNLRLRGGGTEP”: the protein production result was “failed”.

Take “MIVLGHRGYSAKYLENTLEAFMKAIEAGANGVELDVRLSKDGKVVVSHDEDLKRLFGLDVKIRDATVSELKELTDGKITTLKEVFENVSDDKIINIEIKEREAADAVLEISKKRKNLIFSSFDLDLLDEKFKGTKYGYLIDEENYGSIENFVERVEKERPYSLHVPYQAFELEYAVEVLRSFRKKGIVIFVWTLNDPEIYRKIRREIDGVITDEVELFVKLR”: the protein production entry is reported as “not failed”.

With “MMVLRMKVEWYLDFVDLNYEPGRDELIVEYYFEPNGVSPEEAAGRIASESSIGTWTTLWKLPEMAKRSMAKVFYLEKHGEGYIAKIAYPLTLFEEGSLVQLFSAVAGNVFGMKALKNLRLLDFHPPYEYLRHFKGPQFGVQGIREFMGVKDRPLTATVPKPKMGWSVEEYAEIAYELWSGGIDLLKDDENFTSFPFNRFEERVRKLYRVRDRVEAETGETKEYLINITGPVNIMEKRAEMVANEGGQYVMIDIVVAGWSALQYMREVTEDLGLAIHAHRAMHAAFTRNPRHGITMLALAKAARMIGVDQIHTGTAVGKMAGNYEEIKRINDFLLSKWEHIRPVFPVASGGLHPGLMPELIRLFGKDLVIQAGGGVMGHPDGPRAGAKALRDAIDAAIEGVDLDEKAKSSPELKKSLREVGLSKAKVGVQH”, the protein production result is listed as “not failed”.

For the sequence “SRSKQKSRRRCFQCQTKLELVQQELGSCRCGYVFCMLHRLPEQHDCTFDHMGRG”, the protein production entry is given as “not failed”.

As for “MRVDGLNGRPHSHWVINKVIGDSTMTFSNAQRLRPVRRHAIFQACALGFALALASGSAFAAAALTQPAQDPAKVAPASLAVSKIDFKRGEDGTGRLILQFNGQGASPDLRTQGDNVLVDISNARLPAELQRPLNVTDFATPVQRVEVKPSGSGSQLVLSTKGAFDSLAYQTGNEYVVEITPRKGQPAVGGVSPAAVTQAAAQIAARGYSGRPVTFNFQDVPVRTVLQLIAEESNLNIVASDTVQGNVTLRLMNVPWDQALDIVLRAKGLDKRRDGGVVWVAPQPELAKFEQDKEDARIAIENREDLITDYVQINYHNAAVIFKALTEAKGIGGGGGSGGGQGGQGGAGQQDNGFLSPRGRLVADERTNTLMISDIPKKVAQMRELISHIDRPVDQVLIESRIVIATDTFARDLGARFGIIGATGRGILSGSLDSNTNYLNTSAKRASEIANGGTSTTLPAHLFPSGLNVNLGAGGGFTTNTPGGLAYTLLGSNFNLDIELSAMQQEGRGEVVSNPRIVTANQREGVIKQGREIGYVTISGSGAGGGSQANVQFKEVLLELKVTPTITNDNRVFLNMNVKKDEVARLIDLPLYGTVPEINRREINTAVLVGDGETVVIGGVYEFTDRESVSKVPFLGDIPFLGNLFKKRGRSKEKAELLVFVTPKVLRVASATR”, the protein production result is recorded as “failed”.

With “MLYTTFSAIIPSFLIILIGYTVGKIFSEETMGLASKVAIWVMVPTVTFTFINEYTPSFSTLGEFGLGVAIIFVIFYLYSRLFKEKKEVIHVTAVTANVGYLGYPILLSLWGEEALSLGVVYATLNIIMFSAVLPMFLGEKVNVKNLFKLPYVYALVAGFLTGKLGWSFRELPEWLVNAILMLKQSAIPYLLIYVGLSVSKLKLGRHLSKIGGIIVVNKLFLAPLIALVFALIYGLEGLTAKVFVLETAMPAAVNAVILTSALGGDSETVSYGVTLTTFFAIFTLPVWAVILESIFG”, the protein production result is listed as “failed”.

In the case of “MQAKSEAKLAIGVIGCGNISMTYLRNAALFGGIELRACADISADMAALRAKEYGIQALGVDALLSDPEIDLVLNLTIPAAHFDISLSALSAGKHVFTEKPLATSAGDGRRLVAEAAKRGVLLGSAPDTFLGAAGRRARRLMDEGAIGRPVTGTAFMMGRGMEHWHPNPQFYYQPGGGPVFDMGPYYLTMLVNLLGPVARVMAMATRGQEERLITAEGPFKNTTFKVGTPTNVLSLLEFRSGATVTFGASWDVFKHSNHPIELHGTEGSLRLPDPDTFGGTVSLSERGADWKDFAGEGELYGARNWPYAAPDRANYRMLGVADLVRSLKTGAVPRASGNLALHVLEIMEAILHSGETKSAVAIAGDVVQPALLTEDEANSLLA”, the protein production entry is “failed”.

With “TWILTADSPSLLGTVDVVTRYLFEQRCYVTEHHSFDDRLAQRFFIRVEFRAGDGFDEASFRAGLAERVAPFGMRTELTAPGYRSQVAIMVSKADHCLNDLLYRQRIGQLPMDVVAVISNHPDLEPLARWHGIPYHHFPLDPNDKPAQEARVWQVLEESGAELVILARYMQVLSPELCRRLDGWAINIHHSLLPGFKGAKPYHQAYQKGVKLVGATAHYINNDLDEGPIIAQGVETVDHAHYPEDLIAKGRDIECLTLARAVGYHIERRVFLNANRTVVL”, the protein production entry is reported as “failed”.

Consider “MRFWGKFFGFVIGFMFGRFFGALLGLWLGHLYDKRPGGGASFSQILGQAKNRQGIFFNTTFAVMGHVAKASGRVTETDIRIATLLMDQMRLTGDARKEAQQAFREGKEPDFDLCSSLQAFRAVTQGRQELVQMFIEIQIQTALSDGELDAAEHAILMTVAQELGYGRQQLDELLKRWQAEFRFHQTSSGNKTSITDAYHLLGITAEATDQEVKRAYRKLMNEHHPDKLVAKGLPPEMMEIANRKAQDIQAAYDRVKSERGMR”, for which the protein production entry is listed as “failed”.

For the sequence “MKLGVNLCFAVKRWLEPDRLAGLVRDDLGLEYVQYTYDLTDPWWPDIERDRRAIAYAKAFRKAGLTIESTFGGLASYTYNHFLAPTLELQSLGYQHLKRAIDMTAAMEVPATGMPFGSYSAADALNPARREEIYAIARDMWIELAAYAKRQGLSMLYVEPVPLATEFPSSAADAARLMADLDGRTEIPVRLLVDWGHALFEPLFGPEADMDHWMDLCQPWIAAYHIQQTDGQLDRHWSFTQPGVVTPQRLQDFWDKYALTDQTFFAEILYPFEARDEDVLADMIASVKALKAASPAA”, the protein production entry is “not failed”.

For “MGLEEELLRIAKKLEKMVSRKKTEGALDLLKKLNSCQMSIQLLQTTRIGVAVNGVRKHCSDKEVVSLAKVLIKNWKRLLDSPRTTKGERE”, the protein production result was “not failed”.

In the case of “MNLKQIAKDTAKTLQSYLTYQALMTVLAQLGETNPPLALWLHTFSVGKVQDGEAYVKELFREQPDLALRIMTVREHIAEEVAEFLPEMVRSGIQQANMEQRRQHLERMTHLSLSNPSPESEQQTISDTDWDH”, the protein production result is “failed”.

Turning to “MDRLNQIQIILVETSLSANIGSAARAMKTMGLSNLRLVRPKNPLDEQATALAAGAKNILDNAQIFNTFDAAIADCQLIIGTSARLRHLQSTLVEPRECGKLIINNTNQHKIALIFGRERIGLTNEELLKCHYHLNVPTNPEYESLNLAMAVQLACYEIRMAWLELQKKPIIQPLTEEKNYPTAAAMAHFFDHTERLYKELGFIRNDAVMLKLRRLYQRAKLEENELNLLRGMLTAVEKHRIS”, the protein production entry was “failed”.

For “MKQRVITAVIALILFIPIVLAGGLWMDWLTVLFAAVGISEIFLMKKQILVSFDFLLALLATLTWTVPDSFFKVFPSNITKLGVFYGIIMLFLTWTVLSKNKTTFDDVGVYILAALYIGIGFHYMAAIRAYPQNGLALLGYVFVVVWSTDIGAYMIGRKIGKHKLWPVISPNKTWEGSIGAVICALICSAIYLAILSSFNITFGVSELSMVVLAFFLSIVGQMGDLVESAYKRFYGVKDSGKILPGHGGILDRFDSMLFVLPVVAAILGIVH”, the protein production result is “failed”.

Turning to “MANKQVFPTKGNLIATKKSNALAHMGYELMDRKRNILIREMMGLLDDVKLLRDEITQTYAEAYRALQLANMSLGVISAMAEAVPIDTGLHVSYRSVMGVEIPKLSYDKQEIKPTYGLERANSKLDYAYTCFQRVKEMSVVLAEVENNVYRLANAIRKSQKRANALKNIVIPEFEHNIKFITDALEEKEREEFSRQKVIKRNKDSQMQMERK”, the protein production result was “failed”.

“MYLKHFGLGQAPFSLTPNTGFFFGLSPHVEALQVLQTALQTGEGFIKVTGEVGTGKTLICRKLINELPQGFHCAYLPNPYLTPAELRWAVANELGLKYTSEIDQQQLTGLIQQQLLALSTHGHAIVLVLDEAQALPDESLEALRLFTNLETESRKLLQVVLFGQPELDERLKRQAFRQLRQRITFSYNLRPLTWDETDAYIRYRLAVAGHAGQALFSPKITRKIAQASRGIPRLINILAHKALMLSFGEGATQVRMSHLKGAICDTEDASPTRVQKWSTYFAIAFMVFAVAMLALLLSGTNFLQWWGDGA”: the protein production entry is recorded as “failed”.

Take “SEYKFAKFAATYFQGTTTHSYTRRPLKQPLLYHDDEGDQLAALAVWITILRFMGDLPEPKYHTAMSDGSEKIPVMTKIYETLGKKTYKRELQALQGEGEAQLPEGQKKSSVR”: the protein production entry is “failed”.

“RRRAPLARLRQAIQRCEFFVCYQPIVSLSDGRCVGAEALVRWRQQDGTLILPDQFIPLAERSGLILPITDQVIAASMRELGPLLVADRSLHIAINVSVKDIESGRLLDVLALALQDTGLYRKQLWIEATERSFMDARAAREHIVRLREAGYAVVIDDFGTGYSNLQYLQQLPLDALKIDKSFIDTVGRDVTNTAVASHIIDIAKELGMRTIAEGVEREEQLVYLRARGVDMAQGWLFSSPLSVAEFVDYLSHNRSMHPDD”: the protein production result is given as “failed”.

Consider “MTIEKKKNKIIFTRTFSAPINKVFDAYTKRELFEQWFHPQDASVTVYDFNATKGGNAFYAIQAPQMTSYTIAEYLQVDAPYYIEYLDYFATSKGEKDTSMPGMHITLNFEEVKGKTTVTSTSTFPTESAAQQAIDMGVETGMNSTLNQLEKLLNQKLEHHHHHH”, for which the protein production entry is recorded as “not failed”.
